Abundance fitness data for 59 variants are collected here from the Human Domainome abundance scans (Beltran et al. 2025).

To fix the notation:
B1: Myocardin-related transcription factor A, residues 341 to 383; numbered along this chain, Q969V6 (parent)
chain: GALPANLDDMKVAELKQELKLRSLPVSGTKTELIERLRAYQDQ

± gives the uncertainty stated by the source.

This data set covers variants of B1. Description: abundance fitness (aPCA) (normalised: wild type 0, dead -1); higher = more abundant; growth selection in yeast, the domain comes from the species named. The note with it: Homo sapiens.
Consider GALPANLDDMKVAELKQELKLRSLPVSGTKTELIERLRAYCDQ [Q41C], for which the abundance fitness was found to be 0.061 ± 0.1.
As to GALPANLDDMKVAELKQELKLRSLPVSGTKTELIERLRAYVDQ [Q41V], the abundance fitness is 0.055 ± 0.056.
As for GALPANLDDMKVAELKQELKLRSLPVSGTKTELIERLRAYQKQ [D42K], the abundance fitness is 0.022 ± 0.083.
Turning to GALPANLDDMKVAELKQELKLRSLPVSGTKTELIERLPAYQDQ [R38P], the abundance fitness is -0.107 ± 0.1.
To GALPANLDDMKVAELKQELKLRSLPVSGTKTELIEGLRAYQDQ [R36G] belongs -0.188 ± 0.065.
On to GALPANLDDMKVAELKQELKLRSLPVSGTKTELIELLRAYQDQ [R36L], for which the abundance fitness is -0.416 ± 0.086.
Regarding GALYANLDDMKVAELKQELKLRSLPVSGTKTELIERLRAYQDQ [P4Y], the abundance fitness amounted to 0.29 ± 0.14.
With GALPANLDDMKVAELKQELKLRSLPVSGTKTELQERLRAYQDQ [I34Q], the abundance fitness stood at 0.116 ± 0.15.
Take GALPANLDDMKVAELKQEMKLRSLPVSGTKTELIERLRAYQDQ [L19M]: the abundance fitness is 0.178 ± 0.29.
Regarding GALPANLDDMKVAELKQELLLRSLPVSGTKTELIERLRAYQDQ [K20L], the abundance fitness amounted to 0.002 ± 0.075.
On to GALPANLDDMKVAELKQELSLRSLPVSGTKTELIERLRAYQDQ [K20S], for which the abundance fitness worked out at 0.05 ± 0.075.
To GALPANLDDMKVAELKQELNLRSLPVSGTKTELIERLRAYQDQ [K20N] belongs -0.137 ± 0.12; to GALPANLDDMKVAELKQELKLRSLPVSGTKTELIERWRAYQDQ [L37W], -0.403 ± 0.072.
As for GALPKNLDDMKVAELKQELKLRSLPVSGTKTELIERLRAYQDQ [A5K], the abundance fitness came out at 0.109 ± 0.097.
GALPWNLDDMKVAELKQELKLRSLPVSGTKTELIERLRAYQDQ [A5W]: the abundance fitness is -0.655 ± 0.085.
As for GALPANLDDMKVAELKQELKVRSLPVSGTKTELIERLRAYQDQ [L21V], the abundance fitness was -0.004 ± 0.068.
As for GALPANLDDMKVAELKQELKRRSLPVSGTKTELIERLRAYQDQ [L21R], the abundance fitness is 0.057 ± 0.063.
Take GALPANLDDMKQAELKQELKLRSLPVSGTKTELIERLRAYQDQ [V12Q]: the abundance fitness was -0.552 ± 0.42.
Regarding GALPANLDDMKMAELKQELKLRSLPVSGTKTELIERLRAYQDQ [V12M], the abundance fitness is 0.199 ± 0.13.
GALPANLDDMKVAELKQELKLRSLPVSGTKTELIERLRAYQDR [Q43R]: the abundance fitness turned out to be 0.567 ± 0.21.
To GALPANLDDMKVAELKQELKLRRLPVSGTKTELIERLRAYQDQ [S23R] belongs -0.036 ± 0.061.
As for GALPANLDDMKVAELKQELKLRPLPVSGTKTELIERLRAYQDQ [S23P], the abundance fitness was -0.834 ± 0.28.
To GALPANLDDMKVAELKQELKLRWLPVSGTKTELIERLRAYQDQ [S23W] belongs -0.256 ± 0.083; to GALPANLDDTKVAELKQELKLRSLPVSGTKTELIERLRAYQDQ [M10T], -0.568 ± 0.12.
On to GALPANLDDLKVAELKQELKLRSLPVSGTKTELIERLRAYQDQ [M10L], for which the abundance fitness was -0.222 ± 0.1.
For GALPANLDDMKVAELKQELKLRSCPVSGTKTELIERLRAYQDQ [L24C], the abundance fitness was -0.385 ± 0.091.
Take GALPANLDDMKVAELKQELKLRSRPVSGTKTELIERLRAYQDQ [L24R]: the abundance fitness is -0.436 ± 0.074.
GALPANLDDMKVAELKQELKLRSLPVSGTKMELIERLRAYQDQ [T31M]: the abundance fitness is -0.089 ± 0.12.
To GALPANLDDMKVAELKQELKLRSLPVSGTKPELIERLRAYQDQ [T31P] belongs -0.074 ± 0.077; to GALPANLDDMHVAELKQELKLRSLPVSGTKTELIERLRAYQDQ [K11H], -0.154 ± 0.098; to GALPANLDDMMVAELKQELKLRSLPVSGTKTELIERLRAYQDQ [K11M], -0.275 ± 0.13.
As for GALPANLDDMKVAELKQELKLRSLPVSATKTELIERLRAYQDQ [G28A], the abundance fitness was -1.02 ± 0.1.
Then GALPANLDDMKVAELKQELKLRSLPVSWTKTELIERLRAYQDQ [G28W], with -1.03 ± 0.16; and GALPANLDDMKVAELKQELKLRSLPVSGTRTELIERLRAYQDQ [K30R], with 0.024 ± 0.07; and GALPANLDDMKVAELKQELKLRSLPVSGTGTELIERLRAYQDQ [K30G], with -0.494 ± 0.07.
For the variant GALPANLDDMKVAELKQELKLRSLPFSGTKTELIERLRAYQDQ [V26F], the abundance fitness is -0.033 ± 0.12.
For the variant GALPANLDDMKVAELKQELKLRSLPCSGTKTELIERLRAYQDQ [V26C], the abundance fitness is -0.223 ± 0.18.
As to GAWPANLDDMKVAELKQELKLRSLPVSGTKTELIERLRAYQDQ [L3W], the abundance fitness is -0.122 ± 0.14.
For the variant GAYPANLDDMKVAELKQELKLRSLPVSGTKTELIERLRAYQDQ [L3Y], the abundance fitness was found to be 0.502 ± 0.15.
For the variant GALPANLDNMKVAELKQELKLRSLPVSGTKTELIERLRAYQDQ [D9N], the abundance fitness was found to be 0 ± 0.18.
To GALPANLDCMKVAELKQELKLRSLPVSGTKTELIERLRAYQDQ [D9C] belongs 0.014 ± 0.1; to GPLPANLDDMKVAELKQELKLRSLPVSGTKTELIERLRAYQDQ [A2P], -0.041 ± 0.12; to GALPANLDDMKVAELKQMLKLRSLPVSGTKTELIERLRAYQDQ [E18M], -0.274 ± 0.12.
To GALPANTDDMKVAELKQELKLRSLPVSGTKTELIERLRAYQDQ [L7T] belongs -0.136 ± 0.12; to GALPANLDDMKVAELKQELKLCSLPVSGTKTELIERLRAYQDQ [R22C], -0.178 ± 0.12; to GALPANLDDMKVAELKWELKLRSLPVSGTKTELIERLRAYQDQ [Q17W], -0.595 ± 0.12.
As to GALPANLDDMKVAELKSELKLRSLPVSGTKTELIERLRAYQDQ [Q17S], the abundance fitness is -0.036 ± 0.084.
For the variant GALPANLDDMKVAELKRELKLRSLPVSGTKTELIERLRAYQDQ [Q17R], the abundance fitness was -0.049 ± 0.059.
Then GALPANLDDMKVAELYQELKLRSLPVSGTKTELIERLRAYQDQ [K16Y], with -0.131 ± 0.21; and GALPANLDDMKVAELKQELKLRSLPVSGTKTYLIERLRAYQDQ [E32Y], with -0.669 ± 0.12.
Turning to GALPANLDDMKVAELKQELKLRSLPVSGTKTEVIERLRAYQDQ [L33V], the abundance fitness was -0.249 ± 0.081.
Then GALPANLDDMKVAELKQELKLRSLPVSGTKTELIGRLRAYQDQ [E35G], with 0.041 ± 0.08; and GALPANLDDMKVALLKQELKLRSLPVSGTKTELIERLRAYQDQ [E14L], with -0.355 ± 0.087.
In the case of GALPANLDDMKVAHLKQELKLRSLPVSGTKTELIERLRAYQDQ [E14H], the abundance fitness came out at 0.136 ± 0.12.
Consider GALPANLDDMKVAALKQELKLRSLPVSGTKTELIERLRAYQDQ [E14A], for which the abundance fitness was -0.079 ± 0.065.
For GALPANLDDMKVAELKQELKLRSLPVMGTKTELIERLRAYQDQ [S27M], the abundance fitness was -0.286 ± 0.11.
GALPANLDDMKVAELKQELKLRSLPVSGTKTELIERLRWYQDQ [A39W]: the abundance fitness amounted to 0.074 ± 0.076.
Then GALPANLDDMKVAELKQELKLRSLPVSGTKTELIERLRFYQDQ [A39F], with -0.127 ± 0.11.
To GALPANLDDMKVAELKQELKLRSLPVSGTKTELIERLRQYQDQ [A39Q] belongs 0.205 ± 0.086.
